Starred links: 1 amine or outer side, 2 acyl side, 3 side chain; linkers in the order of their positions; H or OH if unused. Positions of bridges follow the written chain, without caps; N, C: chain ends. Non-standard residues stand in square brackets, D forms with d. Gly(1-adamantyl) = N[C@H](C(=O)O)C12CC3CC(CC(C3)C1)C2; Phe(4-CF3) = N[C@@H](Cc1ccc(C(F)(F)F)cc1)C(=O)O; Phe(4-tBu) = CC(C)(C)c1ccc(C[C@H](N)C(=O)O)cc1; hhL = hhLeu, CC(C)CCC[C@H](N[*:1])C(=O)[*:2]; 2Nal = N[C@@H](Cc1ccc2ccccc2c1)C(=O)O; Igl = N[C@H](C(=O)O)C1Cc2ccccc2C1; hCha = N[C@@H](CCC1CCCCC1)C(=O)O; hPhe = N[C@@H](CCc1ccccc1)C(=O)O; R8 = C=CCCCCCC[C@@](C)(N)C(=O)O; Cba = N[C@@H](CC1CCC1)C(=O)O; hLeu = CC(C)CC[C@H](N)C(=O)O; S5 = C=CCCC[C@](C)(N)C(=O)O
Legend:
Assay in all cases: Ki table, method not stated
BCL-2 = BCL-2 (UniProt P10415 1-217, limits assumed)
Chain of BCL-2 (P10415 1-217 limits assumed): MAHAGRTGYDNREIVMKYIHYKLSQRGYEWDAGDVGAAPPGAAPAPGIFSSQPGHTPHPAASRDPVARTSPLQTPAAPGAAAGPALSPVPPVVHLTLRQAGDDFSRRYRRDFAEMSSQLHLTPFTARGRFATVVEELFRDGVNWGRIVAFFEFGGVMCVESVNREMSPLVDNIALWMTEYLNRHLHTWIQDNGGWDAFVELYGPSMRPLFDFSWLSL

BCL-XL = BCL-XL (UniProt Q07817 1-209)
Chain of BCL-XL (Q07817 1-209): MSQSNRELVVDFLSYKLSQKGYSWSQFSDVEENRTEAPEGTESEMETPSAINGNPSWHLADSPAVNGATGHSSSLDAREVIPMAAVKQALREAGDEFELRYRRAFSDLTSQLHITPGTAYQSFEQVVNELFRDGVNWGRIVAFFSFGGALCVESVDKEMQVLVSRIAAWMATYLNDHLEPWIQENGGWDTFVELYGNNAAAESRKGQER

MCL-1 = biological target: T1, MCL-1 (UniProt Q07820 172-327, limits assumed)
T1 construct: also called Myeloid cell leukemia 1
T1 sequence (Q07820 172-327 limits assumed): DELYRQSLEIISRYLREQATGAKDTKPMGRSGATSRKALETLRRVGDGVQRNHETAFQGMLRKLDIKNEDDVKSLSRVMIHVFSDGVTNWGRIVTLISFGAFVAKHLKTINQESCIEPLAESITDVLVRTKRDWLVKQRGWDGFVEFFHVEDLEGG

| Binder | Ki (BCL-2) [nM] | Ki (BCL-XL) [nM] | Ki (MCL-1) [nM] |
| --- | --- | --- | --- |
| Ac-IW[hhL]AQALR[R8]IGDAFN[S5]YYA-NH2 (staple 9-16; SMILES CC[C@H](C)[C@H](NC(C)=O)C(=O)N[C@@H](Cc1c[nH]c2ccccc12)C(=O)N[C@@H](CCCC(C)C)C(=O)N[C@@H](C)C(=O)N[C@@H](CCC(N)=O)C(=O)N[C@@H](C)C(=O)N[C@@H](CC(C)C)C(=O)N[C@@H](CCCNC(=N)N)C(=O)N[C@]1(C)CCCCCCC=CCCC[C@@](C)(C(=O)N[C@@H](Cc2ccc(O)cc2)C(=O)N[C@@H](Cc2ccc(O)cc2)C(=O)N[C@@H](C)C(N)=O)NC(=O)[C@H](CC(N)=O)NC(=O)[C@H](Cc2ccccc2)NC(=O)[C@H](C)NC(=O)[C@H](CC(=O)O)NC(=O)CNC(=O)[C@H]([C@@H](C)CC)NC1=O, also called Ac-IWhhLAQALR$r8IGDAFN$YYA-NH2) [SEQ ID NO: 1678] | 161 | 11.9 | 21.2 |
| Ac-IW[Phe(4-CF3)]AQALR[R8]IGDAFN[S5]YYA-NH2 (staple 9-16; SMILES CC[C@H](C)[C@H](NC(C)=O)C(=O)N[C@@H](Cc1c[nH]c2ccccc12)C(=O)N[C@@H](Cc1ccc(C(F)(F)F)cc1)C(=O)N[C@@H](C)C(=O)N[C@@H](CCC(N)=O)C(=O)N[C@@H](C)C(=O)N[C@@H](CC(C)C)C(=O)N[C@@H](CCCNC(=N)N)C(=O)N[C@]1(C)CCCCCCC=CCCC[C@@](C)(C(=O)N[C@@H](Cc2ccc(O)cc2)C(=O)N[C@@H](Cc2ccc(O)cc2)C(=O)N[C@@H](C)C(N)=O)NC(=O)[C@H](CC(N)=O)NC(=O)[C@H](Cc2ccccc2)NC(=O)[C@H](C)NC(=O)[C@H](CC(=O)O)NC(=O)CNC(=O)[C@H]([C@@H](C)CC)NC1=O, also called Ac-IWF4CF3AQALR$r8IGDAFN$YYA-NH2) [SEQ ID NO: 1683] | 237 | 9.1 | 76.7 |
| Ac-IW[2Nal]AQALR[R8]IGDAFN[S5]YYA-NH2 (staple 9-16; SMILES CC[C@H](C)[C@H](NC(C)=O)C(=O)N[C@@H](Cc1c[nH]c2ccccc12)C(=O)N[C@@H](Cc1ccc2ccccc2c1)C(=O)N[C@@H](C)C(=O)N[C@@H](CCC(N)=O)C(=O)N[C@@H](C)C(=O)N[C@@H](CC(C)C)C(=O)N[C@@H](CCCNC(=N)N)C(=O)N[C@]1(C)CCCCCCC=CCCC[C@@](C)(C(=O)N[C@@H](Cc2ccc(O)cc2)C(=O)N[C@@H](Cc2ccc(O)cc2)C(=O)N[C@@H](C)C(N)=O)NC(=O)[C@H](CC(N)=O)NC(=O)[C@H](Cc2ccccc2)NC(=O)[C@H](C)NC(=O)[C@H](CC(=O)O)NC(=O)CNC(=O)[C@H]([C@@H](C)CC)NC1=O, also called Ac-IW2NalAQALR$r8IGDAFN$YYA-NH2) [SEQ ID NO: 1685] | 265 | 151 | 163 |
| Ac-IWIAQA[2Nal]R[R8]IGDAFN[S5]YYA-NH2 (staple 9-16; SMILES CC[C@H](C)[C@H](NC(C)=O)C(=O)N[C@@H](Cc1c[nH]c2ccccc12)C(=O)N[C@H](C(=O)N[C@@H](C)C(=O)N[C@@H](CCC(N)=O)C(=O)N[C@@H](C)C(=O)N[C@@H](Cc1ccc2ccccc2c1)C(=O)N[C@@H](CCCNC(=N)N)C(=O)N[C@]1(C)CCCCCCC=CCCC[C@@](C)(C(=O)N[C@@H](Cc2ccc(O)cc2)C(=O)N[C@@H](Cc2ccc(O)cc2)C(=O)N[C@@H](C)C(N)=O)NC(=O)[C@H](CC(N)=O)NC(=O)[C@H](Cc2ccccc2)NC(=O)[C@H](C)NC(=O)[C@H](CC(=O)O)NC(=O)CNC(=O)[C@H]([C@@H](C)CC)NC1=O)[C@@H](C)CC, also called Ac-IWIAQA2NalR$r8IGDAFN$YYA-NH2) [SEQ ID NO: 1696] | 234 | 17.3 | 120 |
| Ac-IW[hCha]AQALR[R8]IGDAFN[S5]YYA-NH2 (staple 9-16; SMILES CC[C@H](C)[C@H](NC(C)=O)C(=O)N[C@@H](Cc1c[nH]c2ccccc12)C(=O)N[C@@H](CCC1CCCCC1)C(=O)N[C@@H](C)C(=O)N[C@@H](CCC(N)=O)C(=O)N[C@@H](C)C(=O)N[C@@H](CC(C)C)C(=O)N[C@@H](CCCNC(=N)N)C(=O)N[C@]1(C)CCCCCCC=CCCC[C@@](C)(C(=O)N[C@@H](Cc2ccc(O)cc2)C(=O)N[C@@H](Cc2ccc(O)cc2)C(=O)N[C@@H](C)C(N)=O)NC(=O)[C@H](CC(N)=O)NC(=O)[C@H](Cc2ccccc2)NC(=O)[C@H](C)NC(=O)[C@H](CC(=O)O)NC(=O)CNC(=O)[C@H]([C@@H](C)CC)NC1=O, also called Ac-IWhChaAQALR$r8IGDAFN$YYA-NH2) [SEQ ID NO: 1680] | 182 | 13.1 | 22.2 |
| Ac-IWIAQALR[R8][hLeu]GDAFN[S5]YYA-NH2 (staple 9-16; SMILES CC[C@H](C)[C@H](NC(C)=O)C(=O)N[C@@H](Cc1c[nH]c2ccccc12)C(=O)N[C@H](C(=O)N[C@@H](C)C(=O)N[C@@H](CCC(N)=O)C(=O)N[C@@H](C)C(=O)N[C@@H](CC(C)C)C(=O)N[C@@H](CCCNC(=N)N)C(=O)N[C@]1(C)CCCCCCC=CCCC[C@@](C)(C(=O)N[C@@H](Cc2ccc(O)cc2)C(=O)N[C@@H](Cc2ccc(O)cc2)C(=O)N[C@@H](C)C(N)=O)NC(=O)[C@H](CC(N)=O)NC(=O)[C@H](Cc2ccccc2)NC(=O)[C@H](C)NC(=O)[C@H](CC(=O)O)NC(=O)CNC(=O)[C@H](CCC(C)C)NC1=O)[C@@H](C)CC) [SEQ ID NO: 1699] | 12.7 | 6 | 13 |

Continued by falling Ki (BCL-2), values first:

| Ki (BCL-2) [nM] | Ki (BCL-XL) [nM] | Ki (MCL-1) [nM] | Binder |
| --- | --- | --- | --- |
| 288 | 12.7 | 169 | Ac-IWIAQA[Phe(4-tBu)]R[R8]IGDAFN[S5]YYA-NH2 (staple 9-16; SMILES CC[C@H](C)[C@H](NC(C)=O)C(=O)N[C@@H](Cc1c[nH]c2ccccc12)C(=O)N[C@H](C(=O)N[C@@H](C)C(=O)N[C@@H](CCC(N)=O)C(=O)N[C@@H](C)C(=O)N[C@@H](Cc1ccc(C(C)(C)C)cc1)C(=O)N[C@@H](CCCNC(=N)N)C(=O)N[C@]1(C)CCCCCCC=CCCC[C@@](C)(C(=O)N[C@@H](Cc2ccc(O)cc2)C(=O)N[C@@H](Cc2ccc(O)cc2)C(=O)N[C@@H](C)C(N)=O)NC(=O)[C@H](CC(N)=O)NC(=O)[C@H](Cc2ccccc2)NC(=O)[C@H](C)NC(=O)[C@H](CC(=O)O)NC(=O)CNC(=O)[C@H]([C@@H](C)CC)NC1=O)[C@@H](C)CC, also called Ac-IWIAQAF4tBuR$r8IGDAFN$YYA-NH2) [SEQ ID NO: 1695] |
| 246 | 146 | 12.8 | Ac-IW[Igl]AQALR[R8]IGDAFN[S5]YYA-NH2 (staple 9-16; SMILES CC[C@H](C)[C@H](NC(C)=O)C(=O)N[C@@H](Cc1c[nH]c2ccccc12)C(=O)N[C@H](C(=O)N[C@@H](C)C(=O)N[C@@H](CCC(N)=O)C(=O)N[C@@H](C)C(=O)N[C@@H](CC(C)C)C(=O)N[C@@H](CCCNC(=N)N)C(=O)N[C@]1(C)CCCCCCC=CCCC[C@@](C)(C(=O)N[C@@H](Cc2ccc(O)cc2)C(=O)N[C@@H](Cc2ccc(O)cc2)C(=O)N[C@@H](C)C(N)=O)NC(=O)[C@H](CC(N)=O)NC(=O)[C@H](Cc2ccccc2)NC(=O)[C@H](C)NC(=O)[C@H](CC(=O)O)NC(=O)CNC(=O)[C@H]([C@@H](C)CC)NC1=O)C1Cc2ccccc2C1, also called Ac-IWIglAQALR$r8IGDAFN$YYA-NH2) [SEQ ID NO: 1682] |
| 221 | 69.7 | 53.1 | Ac-IW[hPhe]AQALR[R8]IGDAFN[S5]YYA-NH2 (staple 9-16; SMILES CC[C@H](C)[C@H](NC(C)=O)C(=O)N[C@@H](Cc1c[nH]c2ccccc12)C(=O)N[C@@H](CCc1ccccc1)C(=O)N[C@@H](C)C(=O)N[C@@H](CCC(N)=O)C(=O)N[C@@H](C)C(=O)N[C@@H](CC(C)C)C(=O)N[C@@H](CCCNC(=N)N)C(=O)N[C@]1(C)CCCCCCC=CCCC[C@@](C)(C(=O)N[C@@H](Cc2ccc(O)cc2)C(=O)N[C@@H](Cc2ccc(O)cc2)C(=O)N[C@@H](C)C(N)=O)NC(=O)[C@H](CC(N)=O)NC(=O)[C@H](Cc2ccccc2)NC(=O)[C@H](C)NC(=O)[C@H](CC(=O)O)NC(=O)CNC(=O)[C@H]([C@@H](C)CC)NC1=O, also called Ac-IWhFAQALR$r8IGDAFN$YYA-NH2) [SEQ ID NO: 1681] |
| 89 | 27.5 | 26.6 | Ac-IWIAQALR[R8][Cba]GDAFN[S5]YYA-NH2 (staple 9-16; SMILES CC[C@H](C)[C@H](NC(C)=O)C(=O)N[C@@H](Cc1c[nH]c2ccccc12)C(=O)N[C@H](C(=O)N[C@@H](C)C(=O)N[C@@H](CCC(N)=O)C(=O)N[C@@H](C)C(=O)N[C@@H](CC(C)C)C(=O)N[C@@H](CCCNC(=N)N)C(=O)N[C@]1(C)CCCCCCC=CCCC[C@@](C)(C(=O)N[C@@H](Cc2ccc(O)cc2)C(=O)N[C@@H](Cc2ccc(O)cc2)C(=O)N[C@@H](C)C(N)=O)NC(=O)[C@H](CC(N)=O)NC(=O)[C@H](Cc2ccccc2)NC(=O)[C@H](C)NC(=O)[C@H](CC(=O)O)NC(=O)CNC(=O)[C@H](CC2CCC2)NC1=O)[C@@H](C)CC) [SEQ ID NO: 1698] |
| 59 | 7.3 | 21.6 | Ac-IW[Gly(1-adamantyl)]AQALR[R8]IGDAFN[S5]YYA-NH2 (staple 9-16; SMILES CC[C@H](C)[C@H](NC(C)=O)C(=O)N[C@@H](Cc1c[nH]c2ccccc12)C(=O)N[C@H](C(=O)N[C@@H](C)C(=O)N[C@@H](CCC(N)=O)C(=O)N[C@@H](C)C(=O)N[C@@H](CC(C)C)C(=O)N[C@@H](CCCNC(=N)N)C(=O)N[C@]1(C)CCCCCCC=CCCC[C@@](C)(C(=O)N[C@@H](Cc2ccc(O)cc2)C(=O)N[C@@H](Cc2ccc(O)cc2)C(=O)N[C@@H](C)C(N)=O)NC(=O)[C@H](CC(N)=O)NC(=O)[C@H](Cc2ccccc2)NC(=O)[C@H](C)NC(=O)[C@H](CC(=O)O)NC(=O)CNC(=O)[C@H]([C@@H](C)CC)NC1=O)C12CC3CC(CC(C3)C1)C2, also called Ac-IWAdmAQALR$r8IGDAFN$YYA-NH2) [SEQ ID NO: 1679] |

Source: US20180273587A1 (AILERON THERAPEUTICS, published 2018)
